From patent publication US20240309087A1 (SHANGHAI JUNSHI BIOSCIENCES, published 2024)
One block for each binder: values may come before it.

Assays:
[1] = target: T1, recombinant cynomolgus monkey CD112R antigen (cynomolgus monkey, UniProt A0A2K5WVV8 1-322); assay: ELISA on coated recombinant cynomolgus monkey CD112R, OD 450 nm, ambiguous fit; unit from the axis
T1 construct: bought
T1 sequence: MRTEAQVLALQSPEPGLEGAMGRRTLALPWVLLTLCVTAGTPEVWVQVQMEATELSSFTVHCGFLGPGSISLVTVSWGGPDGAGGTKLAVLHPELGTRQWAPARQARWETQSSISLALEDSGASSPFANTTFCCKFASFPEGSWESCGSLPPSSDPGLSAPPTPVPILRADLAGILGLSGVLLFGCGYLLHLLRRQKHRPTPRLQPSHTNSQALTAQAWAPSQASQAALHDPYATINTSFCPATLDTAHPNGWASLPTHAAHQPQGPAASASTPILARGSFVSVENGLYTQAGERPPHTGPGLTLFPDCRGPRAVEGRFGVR
Method: A plate was coated with a recombinant cynomolgus monkey CD112R antigen (Acrobiosystems, Cat No. PVG-C5259) at a fixed concentration, and the chimeric anti-CD112R antibodies diluted in a gradient (initial concentration: 1 μg/mL, 2.5-fold gradient dilution, 12 concentration gradients in total) were added to bind to the antigen. Horseradish peroxidase (HRP)-conjugated mouse anti-human IgG4 Fc (Southern Biotech, 9200-05) was subjected to a 5000-fold dilution and used as a detection antibody for detection. The color development was performed with 0.1 mg/mL TMB, and finally stopped with 2 M hydrochloric acid. […] EC₅₀ was obtained by fitting with a four-parameter logistic regression (4PL) model.

[2] = target: T2, human CD112R on CHO-CD112R cells (human, UniProt Q6DKI7 41-326); assay: FACS on CHO-CD112R cells; EC50 Ref/EC50 antibody
T2 construct: whole, on cells; also called hCD112R; PVRIG
T2 sequence (looked up): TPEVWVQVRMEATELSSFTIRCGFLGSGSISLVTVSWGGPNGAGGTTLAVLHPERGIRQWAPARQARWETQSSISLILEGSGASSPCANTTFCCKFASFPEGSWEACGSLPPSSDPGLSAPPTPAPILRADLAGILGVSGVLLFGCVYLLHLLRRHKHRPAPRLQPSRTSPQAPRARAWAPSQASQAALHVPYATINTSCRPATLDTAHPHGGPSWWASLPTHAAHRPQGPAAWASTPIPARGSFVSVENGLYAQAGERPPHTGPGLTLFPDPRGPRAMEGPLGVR
Summary of the method: (§1)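 CHO cells stably expressing human CD112R (Met1-Arg326) incubated 30 min at 4 °C with antibody, top 50 μg/mL, 5-fold dilutions, 12 points. Fluorescent secondary antibody added, 30 min at 4 °C. MFI by flow cytometry; EC50 from fitted dose-response curves, with reference anti-CD112R and anti-KLH IgG4 controls.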

[3] = target: T2, human CD112R on CHO-CD112R cells; assay: FACS on CHO-CD112R cells
Summary of the method: as §1

[4] = target: T3, hCD112R mFC recombinant protein (human; murine, UniProt Q6DKI7 41-160); assay: ELISA, coated hCD112R-ECD-mFC
T3 construct: range 41-160; expressed in 293E cells; also called hCD112R ECD mFC; hCD112R-ECD-mFC; not shown: murine IgG2a Fc domain (MX2-mFc vector)
T3 sequence (looked up): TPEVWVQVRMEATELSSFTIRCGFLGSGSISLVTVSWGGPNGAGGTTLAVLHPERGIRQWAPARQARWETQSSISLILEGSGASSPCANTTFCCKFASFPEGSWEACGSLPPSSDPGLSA
Summary of the method: (§2)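 Plates coated with hCD112R-ECD-mFC at 1.5 μg/mL; humanized antibodies titrated from 1 μg/mL, 2.5-fold, 12 points. Bound antibody detected with HRP anti-human IgG Fc and TMB, read at 420/620 nm; EC50 from 4PL fit, COM701 and anti-KLH hu-IgG4 as controls.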

[5] = target: T3, hCD112R mFC recombinant protein; assay: ELISA, coated hCD112R-ECD-mFC; EC50 COM701/EC50 antibody
Summary of the method: as §2

[6] = target: T3, hCD112R mFC recombinant protein; assay: FACS competition, hCD112R mFc on CHO CD112 cells; IC50 COM701/IC50 antibody
Summary of the method: (§3)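 CHO cells overexpressing human CD112 were co-incubated 30 min at 4 °C with hCD112R mFc (5 μg/mL) and humanized anti-CD112R antibodies (from 100 μg/mL, 3-fold, 10 points). Bound fusion protein detected with anti-mouse IgG Fc secondary by flow cytometry; IC50 from four-parameter fit of MFI. COM701 served as positive control, anti-KLH hu-IgG4 as negative.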

[7] = target: T4, human CD112R on Jurkat CD112R effector cells (human, UniProt Q6DKI7 1-326); assay: cell-based or functional assay
T4 sequence (looked up): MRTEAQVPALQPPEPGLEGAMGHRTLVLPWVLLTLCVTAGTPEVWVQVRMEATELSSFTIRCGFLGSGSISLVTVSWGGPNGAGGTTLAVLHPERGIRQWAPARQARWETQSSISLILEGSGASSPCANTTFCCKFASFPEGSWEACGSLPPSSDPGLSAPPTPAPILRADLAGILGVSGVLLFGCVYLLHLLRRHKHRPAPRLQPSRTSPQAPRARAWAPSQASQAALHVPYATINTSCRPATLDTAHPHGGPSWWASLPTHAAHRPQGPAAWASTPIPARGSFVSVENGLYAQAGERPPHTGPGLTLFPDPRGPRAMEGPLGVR

[8] = target: T1, recombinant cynomolgus monkey CD112R …; assay: ELISA, coated cynomolgus monkey CD112R
Method: (§4) Plates were coated with a recombinant cynomolgus monkey CD112R antigen (purchased from Acrobiosystems, Cat No. PVG-C5259) and a mouse CD112R antigen (purchased from Acrobiosystems, Cat No. PVG-M5257) at fixed concentrations, respectively, and the humanized anti-CD112R antibodies diluted in a gradient (initial concentration: 1 μg/mL, 2.5-fold gradient dilution, 12 concentration gradients in total) were added to bind to the antigens, HRP-conjugated mouse anti-human IgG4 Fc (Southern Biotech. 9200-05) was subjected to a 5000-fold dilution and used as detection antibody for detection. The color development was performed with 0.1 mg/mL TMB, and finally stopped with 2 M hydrochloric acid. The plates were read at 420 nm/620 nm. EC₅₀ was obtained by fitting with a four-parameter logistic regression (4PL) model.

[9] = target: T3, hCD112R mFC recombinant protein; assay: FACS competition, hCD112R mFc on CHO CD112 cells
Summary of the method: as §3

mouse CD112R antigen [10] = target: T5, mouse CD112R antigen (mouse); assay: ELISA on coated mouse CD112R, OD 450 nm, ambiguous fit of a nearly flat curve; unit from the axis
T5 construct: bought
Method: as §4, with “The plates were read at 420 nm/620 nm.” left out

[11] = target: T1, recombinant cynomolgus monkey CD112R …; assay: ELISA on coated recombinant cynomolgus monkey CD112R, OD 450 nm, 4PL fit; unit from the axis
mouse CD112R antigen [12] = target: T5, mouse CD112R antigen; assay: ELISA on coated mouse CD112R, OD 450 nm, fit of a nearly flat curve; unit from the axis
Method: as §4, with “The plates were read at 420 nm/620 nm.” left out

B1: Chi-18 (antibody, V domains shown)
VH: EVQLQQSGAELVKPGASVKISCKASGYTFTDYNMDWVKQSHGKSLEWIGDIHPKYDRTSYNQNFKGKATLTVDKSSRTAYMELRSLTSEDTAVYFCVRINDFDEGFAMDYWGQGTSVTVSS
VL: QIVLTQSPAIMSVSPGEKVTMTCSATSSINYMHWYQQKSGTSPKRWIYDTSKLASGVPARFSGSGSGTSYSLTISNMEAEDAATYYCQQWTSNPLTFGAGTKLELK
notes: chimeric
EC50 [1]: ~27600 µg/mL
Relative activity (%) [2]: 572%
EC50 [3]: 0.294 µg/mL

B4: Hu16 (antibody, human IgG4 S228P, kappa)
heavy: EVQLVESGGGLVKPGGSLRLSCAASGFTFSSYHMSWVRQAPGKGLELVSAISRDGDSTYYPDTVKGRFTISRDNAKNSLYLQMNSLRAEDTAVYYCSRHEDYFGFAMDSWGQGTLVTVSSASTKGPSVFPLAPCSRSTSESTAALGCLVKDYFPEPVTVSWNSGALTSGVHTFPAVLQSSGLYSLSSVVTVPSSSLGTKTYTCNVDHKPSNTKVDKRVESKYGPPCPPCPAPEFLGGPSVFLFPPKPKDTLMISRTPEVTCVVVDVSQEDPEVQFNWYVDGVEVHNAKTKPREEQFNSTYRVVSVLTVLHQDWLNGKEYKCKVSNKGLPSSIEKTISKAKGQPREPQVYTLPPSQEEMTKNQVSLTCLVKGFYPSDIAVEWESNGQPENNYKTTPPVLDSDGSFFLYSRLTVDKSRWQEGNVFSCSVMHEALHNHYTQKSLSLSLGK
light: DIVMTQSPDSLAVSLGERATINCKASQSVSNDVAWYQQKPGQPPKLLIYYVSHRFTGVPDRFSGSGSGTDFTLTISSLQAEDVAVYFCHQAYRSPWTFGQGTKLEIKRTVAAPSVFIFPPSDEQLKSGTASVVCLLNNFYPREAKVQWKVDNALQSGNSQESVTEQDSKDSTYSLSSTLTLSKADYEKHKVYACEVTHQGLSSPVTKSFNRGEC
notes: humanized; 5C10VH1 + 6A10VL2
EC50 [4]: 0.00426 µg/mL
Relative activity (%) [5]: 126%
Relative activity (%) [6]: 143%
EC50, CD112R/CD112 reporter [7]: 0.0196 µg/mL
Relative activity (%), EC50 COM701/EC50 antibody [7]: 253%
EC50 [8]: 0.00292 µg/mL
IC50 [9]: 2.5 µg/mL
EC50 (mouse CD112R antigen [10]): ~683 µg/mL

Other lines, results leading:

EC50 [4]: 0.00496 µg/mL
Relative activity (%) [5]: 169%
Relative activity (%) [6]: 76%
EC50, CD112R/CD112 reporter [7]: 0.0188 µg/mL
Relative activity (%), EC50 COM701/EC50 antibody [7]: 312%
EC50 [8]: 0.00262 µg/mL
IC50 [9]: 3.17 µg/mL
EC50 (mouse CD112R antigen [10]): ~1970 µg/mL
B2: Hu59 (antibody, human IgG4 S228P, kappa)
heavy: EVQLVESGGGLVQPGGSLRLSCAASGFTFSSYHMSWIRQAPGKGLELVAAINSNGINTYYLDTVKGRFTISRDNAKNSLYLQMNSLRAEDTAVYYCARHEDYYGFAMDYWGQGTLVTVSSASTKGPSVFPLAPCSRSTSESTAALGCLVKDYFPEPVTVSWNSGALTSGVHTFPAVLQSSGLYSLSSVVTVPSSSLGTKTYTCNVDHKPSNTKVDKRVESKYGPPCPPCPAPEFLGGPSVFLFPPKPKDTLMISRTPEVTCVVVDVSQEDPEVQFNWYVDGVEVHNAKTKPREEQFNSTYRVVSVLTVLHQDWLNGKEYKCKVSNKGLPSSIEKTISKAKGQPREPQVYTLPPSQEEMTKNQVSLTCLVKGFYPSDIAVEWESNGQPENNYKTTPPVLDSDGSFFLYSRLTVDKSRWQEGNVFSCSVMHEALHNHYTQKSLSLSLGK
light: DIQMTQSPSSLSASVGDRVTITCKASQSVSNDVAWYQQKPGKAPKLLIYYVSNRFTGVPSRFSGSGSGTDFTLTISSLQPEDFATYFCQQAYRSPWTFGQGTKLEIKRTVAAPSVFIFPPSDEQLKSGTASVVCLLNNFYPREAKVQWKVDNALQSGNSQESVTEQDSKDSTYSLSSTLTLSKADYEKHKVYACEVTHQGLSSPVTKSFNRGEC
notes: humanized; 7C2VH2 + 7C2VL1

EC50 [11]: 0.00428 µg/mL
EC50 (mouse CD112R antigen [10]): ~1.06 µg/mL
B3: COM701 (antibody, V domains shown)
VH: QVQLVQSGAEVKKPGASVKVSCKASGYTFTDYNINWVRQAPGQGLEWMGYIYPYIGGSGYAQKFQGRVTMTRDTSTSTVYMELSSLRSEDTAVYYCAREDKTARNAMDYWGQGTLVTVSS
VL: DIQMTQSPSSLSASVGDRVTITCRVSENIYSNLAWYQQKPGKAPKLLIYEATNLAEGVPSRFSGSGSGTDFTLTISSLQPEDFATYYCQHFWGTPYTFGQGTKLEIK

EC50 (mouse CD112R antigen [12]): 1870 µg/mL
EC50 [4]: 0.00568 µg/mL
Relative activity (%) [5]: 161%
Relative activity (%) [6]: 95.5%
EC50, CD112R/CD112 reporter [7]: 0.018 µg/mL
Relative activity (%), EC50 COM701/EC50 antibody [7]: 415%
EC50 [8]: 0.00309 µg/mL
IC50 [9]: 2.52 µg/mL
B5: Hu52 (antibody, human IgG4 S228P, kappa)
heavy: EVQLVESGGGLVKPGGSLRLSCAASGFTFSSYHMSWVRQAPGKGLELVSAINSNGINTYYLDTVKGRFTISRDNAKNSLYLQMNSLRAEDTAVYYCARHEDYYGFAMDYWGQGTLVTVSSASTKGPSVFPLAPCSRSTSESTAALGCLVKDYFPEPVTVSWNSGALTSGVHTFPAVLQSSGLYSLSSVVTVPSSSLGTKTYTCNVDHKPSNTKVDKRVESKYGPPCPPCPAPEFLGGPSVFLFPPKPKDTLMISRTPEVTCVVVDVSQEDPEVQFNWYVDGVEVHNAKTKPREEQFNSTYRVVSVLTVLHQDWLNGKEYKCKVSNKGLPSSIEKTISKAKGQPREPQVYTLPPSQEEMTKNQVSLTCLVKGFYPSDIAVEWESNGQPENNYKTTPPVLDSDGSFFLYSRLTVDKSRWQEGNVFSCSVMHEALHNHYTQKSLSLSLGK
light: B4 light
notes: humanized; 7C2VH1 + 6A10VL2
